Assay results from patent US12296012 (Pfizer, dated 2025).

T1: human FLT3 (human, UniProt P36888 27-541, limits assumed)
T1 construct: Soluble analyte hFLT3 in SPR; also called hFLT3; huFlt3
T1 sequence: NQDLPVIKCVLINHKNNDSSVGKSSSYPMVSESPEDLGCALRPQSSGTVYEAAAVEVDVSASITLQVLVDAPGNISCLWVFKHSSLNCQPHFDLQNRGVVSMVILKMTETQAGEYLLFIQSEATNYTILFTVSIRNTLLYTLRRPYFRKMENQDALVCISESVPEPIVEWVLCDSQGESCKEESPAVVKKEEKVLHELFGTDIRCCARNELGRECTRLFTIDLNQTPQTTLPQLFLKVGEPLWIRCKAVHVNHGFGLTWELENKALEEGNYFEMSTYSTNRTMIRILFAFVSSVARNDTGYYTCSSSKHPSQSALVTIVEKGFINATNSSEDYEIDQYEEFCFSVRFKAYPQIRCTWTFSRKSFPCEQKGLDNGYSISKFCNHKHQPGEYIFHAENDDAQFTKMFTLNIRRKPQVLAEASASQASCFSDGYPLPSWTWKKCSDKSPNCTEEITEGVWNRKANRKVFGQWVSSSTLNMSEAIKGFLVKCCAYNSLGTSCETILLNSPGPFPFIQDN


Target: T1, human FLT3
Assay: SPR Biacore T200, 37C; scFv format

Row | Binder | Kd [nM] | koff [s⁻¹] | kon [M⁻¹ s⁻¹] | t1/2 [min]
1 | P1B4 (scFv format) (scFv, not shown: a dimerising Fc or GST; small tags and cut ends) scFv: QVQLVQSGAEVKKPGSSVKVSCKASGGVFSRYALSWVRQAPGQGLEWMGGIIPMLGFANYAQKFQGRVTITADESTSTAYMELSSLRSEDTAVYYCATLDFGALDYWGQGTLVTVSSGGGGSGGGGSGGGGSEIVLTQSPGTLSLSPGERATLSCRASQSVPNEQLAWYQQKPGQAPRLLIYDASSRATGIPDRFSGSGSGTDFTLTISRLEPEDFAVYYCQQYGSPPLTFGQGTKVEIK | 27.3 | 0.00327 | 120000 | 3.5
2 | P1A5 (scFv format) (scFv) scFv: QVQLVQSGAEVKKPGSSVKVSCKASGGVFSRYALSWVRQAPGQGLEWMGGIIPMLGFANYAQKFQGRVTITADESTSTAYMELSSLRSEDTAVYYCATLDFGALDYWGQGTLVTVSSGGGGSGGGGSGGGGSEIVLTQSPGTLSLSPGERATLSCRASQAVDSSDLAWYQQKPGQAPRLLIYDAYTRPSGIPDRFSGSGSGTDFTLTISRLEPEDFAVYYCQQYGSSPLTFGGGTKLEIK | 1.1 | 0.000292 | 259000 | 40
3 | P4H11 (scFv format) (scFv) scFv: EVQLLESGGGLVQPGGSLRLSCAASGFTFSSYAMNWVRQAPGKGLEWVSSISGGGRSTYYADSVKGRFTISRDNSKNTLYLQMNSLRAEDTAVYYCARDLSPSDVGWGYGFDIWGQGTLVTVSSGGGGSGGGGSGGGGSEIVLTQSPGTLSLSPGERATLSCRASQSVSNTYLAWYQQKPGQAPRLLIYDTSSRATGIPDRFSGSGSGTDFTLTISRLEPEDFAVYYCQQYGSSLTFGQGTKVEIK | 58.3 | 0.00933 | 160000 | 1
4 | P14G2 (scFv format) (scFv) scFv: EVQLLESGGGLVQPGGSLRLSCAASGFTFSNYVMNWVRQAPGKGLEWVSAISGSGATTYYADSVKGRFTISRDNSKNTLYLQMNSLRAEDTAVYYCVSGLWAGGIWGQGTLVTVSSGGGGSGGGGSGGGGSDIQMTQSPSSLSASVGDRVTITCRASQSISSYLNWYQQKPGKAPKLLIYDASDLQRGVPSRFSGSGSGTDFTLTISSLQPEDFATYYCQQSYNTPWTFGQGTKVEIK | 3.3 | 0.000305 | 93500 | 37.9
5 | P3E10 (scFv format) (scFv) scFv: QVQLVQSGAEVKKPGSSVKVSCKASGGTFSSYAIQWVRQAPGQGLEWMGGIVGSWGLANYAQKFQGRVTITTDKSTSTAYMELSSLRSEDTAVYYCATSAFGELASWGQGTLVTVSSGGGGSGGGGSGGGGSEIVLTQSPGTLSLSPGERATLSCRASQSVPSSQLAWYQQKPGQAPRLLIYDASSRATGIPDRFSGSGSGTDFTLTISRLEPEDFAVYYCQQYGSSPLTFGQGTKVEIK | 65.1 | 0.0112 | 172000 | 1
6 | P5F7 (scFv format) (scFv) scFv: EVQLLESGGGLVQPGGSLRLSCAASGFTFSSYAMNWVRQAPGKGLEWVSSISGGGRSTYYADSVKGRFTISRDNSKNTLYLQMNSLRAEDTAVYYCARDLSPSDVGWGYGFDIWGQGTLVTVSSGGGGSGGGGSGGGGSEIVLTQSPATLSLSPGERATLSCRASQSVSSNLAWYQQKPGQAPRLLIYDTFTRATGIPARFSGSGSGTDFTLTISRLEPEDFAVYYCQQYGSSPPTFGQGTRLEIK | 1 | 0.000197 | 189000 | 59
7 | P4C7 (scFv format) (scFv, not shown: a dimerising Fc or GST; small tags and cut ends) scFv: QVQLVQSGAEVKKPGSSVKVSCKASGGTFSSYTISWVRQAPGQGLEWMGGIIPAFGIANYAQKFQGRVTITADKSTSTAYMELSSLRSEDTAVYYCAKGGSYSLDYFDIWGQGTLVTVSSGGGGSGGGGSGGGGSEIVLTQSPGTLSLSPGERATLSCRASQYVSASLLAWYQQKPGQAPRLLIYGASTRATGIPDRFSGSGSGTDFTLTISRLEPEDFAVYYCQQYARSSTFGQGTKVEIK | 13.6 | 0.00164 | 121000 | 7
8 | P9B5 (scFv format) (scFv, not shown: a dimerising Fc or GST; small tags and cut ends) scFv: EVQLLESGGGLVQPGGSLRLSCAASGFIFASYAMSWVRQAPGKGLEWVSEISSSGGSTTYADSVKGRFTISRDNSKNTLYLQMNSLRAEDTAVYYCARDRVMAGLGYDPFDYWGQGTLVTVSSGGGGSGGGGSGGGGSQSVLTQPPSASGTPGQRVTISCSGSSSNIGSNYVYWYQQLPGTAPKLLIYRNNQRPSGVPDRFSGSKSGTSASLAISGLRSEDEADYYCAAWDDSLSGVVFGGGTKLTVL | 18.1 | 0.000687 | 38000 | 16.8
9 | P9F1 (scFv format) (scFv, not shown: a dimerising Fc or GST; small tags and cut ends) scFv: EVQLLESGGGLVQPGGSLRLSCAASGFIFSSFAMSWVRQAPGKGLEWVSDISGSGASTYYADSVKGRFTISRDNSKNTLYLQMNSLRAEDTAVYYCASASGGSGSYWPYMDPWGQGTLVTVSSGGGGSGGGGSGGGGSQSVLTQPPSASGTPGQRVTISCSGSGSNIGSNYVYWYQQLPGTAPKLLIYRNNQRPSGVPDRFSGSKSGTSASLAISGLRSEDEADYYCAAWDGSLSRPVFGTGTKLTVL | 126 | 0.0286 | 226000 | 0.4
10 | P1B11 (scFv format) (scFv, not shown: a dimerising Fc or GST; small tags and cut ends) scFv: QVQLVQSGAEVKKPGSSVKVSCKASGGTFRSFDISWVRQAPGQGLEWMGRIIPILGYANYAQKFQGRVTITADESTSTAYMELSSLRSEDTAVYYCASDLGAPWAGYPFDPWGQGTLVTVSSGGGGSGGGGSGGGGSEIVLTQSPGTLSLSPGERATLSCRASQSVSSSELAWYQQKPGQAPRLLIYDASSRATGIPDRFSGSGSGTDFTLTISRLEPEDFAVYYCQQYDSSPLTFGQGTKVEIK | 30.3 | 0.00257 | 84700 | 4.5
11 | P7F9 (scFv format) (scFv) scFv: EVQLLESGGGLVQPGGSLRLSCAASGFTFSSYAMSWVRQAPGKGLEWVSAIGGSGGSTYYADSVKGRFTISRDNSKNTLYLQMNSLRAEDTAMYYCARDYYAFSDPAYGGMDVWGQGTLVTVSSGGGGSGGGGSGGGGSNFMLTQPHSVSESPGKTVTISCTRSSGSIASNYVQWYQQKPGQAPVLVVYDDSDRPSGIPERFSGSNSGNTATLTISRVEAGDEADYYCQVWDSSSDHWVFGGGTKLTVL | 27.7 | 0.00241 | 87000 | 4.8
12 | P5A3 (scFv format) (scFv, not shown: a dimerising Fc or GST; small tags and cut ends) scFv: QVQLVQSGAEVKKPGSSVKVSCKASGGTFSSYYIGWVRQAPGQGLEWMGGIIPWFGTANYAQKFQGRVTITADKSTNTAYMELSSLRSEDTAVYYCAADHHDSPSGYTSGGFDVWGQGTLVTVSSGGGGSGGGGSGGGGSQSALTQPASVSGSPGQSITISCTGTSSDVGGYNYVSWYQQHPGKAPKLMIYEVSKRPSGVPDRFSGSKSGNTASLTVSGLQAEDEADYYCSSYAGSNTVVFGGGTKLTVL | 216 | 0.0175 | 81000 | 0.7
13 | P7H3 (scFv format) (scFv, not shown: a dimerising Fc or GST; small tags and cut ends) scFv: EVQLLESGGGLVQPGGSLRLSCAASGFTFSSYAMHWVRQAPGKGLEWVSAISGSGGSTYYADSVKGRFTISRDNSKNTLYLQMNSLRAEDTAVYYCARGTRWWWGDAFDHWGQGTLVTVSSGGGGSGGGGSGGGGSQSVLTQPPSVSVAPGKTARITCGGNNIGSKSVHWYQQKPGQAPVLVIYYDSDRPSGIPERFSGSNSGNTATLTISRVEAGDEADYYCQVWDSSTAWVFGGGTKLTVL | 9.1 | 0.00187 | 205000 | 6.2
